{
  "source": "paper PMC7797039",
  "about": "“G-Quadruplex loops regulate PARP-1 enzymatic activation”",
  "binders": {"B1": {"name": "18-bp dsDNA (dsDNA)", "DNA 1": "GGGTTGCGGCCGCTTGGG", "DNA 2": "CCCAAGCGGCCGCAACCC"}},
  "key": {"PARP-1 [1]": {"target": "T1, PARP-1 (Homo sapiens, UniProt P09874 1-1014)", "T1 sequence (P09874 whole entry)": "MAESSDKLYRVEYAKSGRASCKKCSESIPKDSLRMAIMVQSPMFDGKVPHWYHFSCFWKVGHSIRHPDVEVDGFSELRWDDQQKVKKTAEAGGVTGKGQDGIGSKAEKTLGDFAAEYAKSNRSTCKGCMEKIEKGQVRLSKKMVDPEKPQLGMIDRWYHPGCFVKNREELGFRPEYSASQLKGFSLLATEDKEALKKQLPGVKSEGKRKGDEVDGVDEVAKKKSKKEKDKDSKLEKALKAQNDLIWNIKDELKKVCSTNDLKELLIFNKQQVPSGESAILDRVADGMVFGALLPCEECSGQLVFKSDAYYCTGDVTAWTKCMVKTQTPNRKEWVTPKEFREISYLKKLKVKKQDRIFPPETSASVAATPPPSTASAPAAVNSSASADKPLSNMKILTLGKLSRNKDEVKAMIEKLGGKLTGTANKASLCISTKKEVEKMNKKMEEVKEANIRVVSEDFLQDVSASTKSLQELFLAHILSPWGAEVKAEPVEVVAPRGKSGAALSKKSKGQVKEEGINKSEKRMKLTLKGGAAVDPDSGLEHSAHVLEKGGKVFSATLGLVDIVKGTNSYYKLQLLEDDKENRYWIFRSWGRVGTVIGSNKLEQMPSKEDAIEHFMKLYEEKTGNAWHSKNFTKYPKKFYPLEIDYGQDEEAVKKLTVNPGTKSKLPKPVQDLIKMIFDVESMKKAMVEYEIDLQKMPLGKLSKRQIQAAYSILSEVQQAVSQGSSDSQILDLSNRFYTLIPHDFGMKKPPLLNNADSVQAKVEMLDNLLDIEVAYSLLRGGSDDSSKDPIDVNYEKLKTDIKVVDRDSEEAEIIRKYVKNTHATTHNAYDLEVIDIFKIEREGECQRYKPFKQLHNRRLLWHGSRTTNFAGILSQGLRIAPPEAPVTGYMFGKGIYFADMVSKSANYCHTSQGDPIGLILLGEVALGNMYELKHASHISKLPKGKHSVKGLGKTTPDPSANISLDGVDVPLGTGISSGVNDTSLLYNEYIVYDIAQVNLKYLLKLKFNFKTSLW", "assay": "fluorescence anisotropy; 140 mM KCl, 8 mM MgCl2; 25 mM HEPES pH 8.0, 140 mM KCl, 8 mM MgCl2, 50 ug/ml BSA, 0.02 mM TCEP, 4% glycerol, 11.4 mM bME, 5 nM labeled DNA, 30 min room temperature, read at 25 C", "details": "protein: recombinant, tags: His-tag (pET28a)"}, "PARP-1 [2]": {"target": "T1, PARP-1", "assay": "fluorescence anisotropy; 140 mM KCl, 8 mM MgCl2; tighter than c-KIT, Kd in figure only; 25 mM HEPES pH 8.0, 140 mM KCl, 8 mM MgCl2, 50 ug/ml BSA, 0.02 mM TCEP, 4% glycerol, 11.4 mM bME, 5 nM labeled DNA, 30 min room temperature, read at 25 C", "details": "protein: recombinant; tags: His-tag (pET28a); parallel G4"}, "PARP-1 [3]": {"target": "T1, PARP-1", "assay": "fluorescence anisotropy; 140 mM KCl, 8 mM MgCl2; ~14-fold tighter than c-KIT, similar to 18-bp dsDNA; 25 mM HEPES pH 8.0, 140 mM KCl, 8 mM MgCl2, 50 ug/ml BSA, 0.02 mM TCEP, 4% glycerol, 11.4 mM bME, 5 nM labeled DNA, 30 min room temperature, read at 25 C", "details": "protein: recombinant; tags: His-tag (pET28a); parallel G4"}},
  "data": [
    {"binder": "TGGGTGGGTAGGGTGGGT (structured_DNA)", "note": "[c-MYC G4DNA (Pu18 T14T23)]", "values": [
      {"measurement": "Kd", "setting": "PARP-1 [1]; parallel G4", "value": "400 ± 50", "unit": "nM"}
    ]},
    {"binder": "CGGGCGGGCGCGAGGGAGGGGAGG (structured_DNA)", "note": "[c-KIT 5']", "values": [
      {"measurement": "Kd", "setting": "PARP-1 [1]; parallel G4", "value": "230 ± 9", "unit": "nM"}
    ]},
    {"binder": "CCCGGGCGGGCGCGAGGGAGGGGAGG (structured_DNA)", "note": "[c-KIT G4DNA]", "values": [
      {"measurement": "Kd", "setting": "PARP-1 [1]; parallel G4, stem-loop also possible", "value": "430 ± 60", "unit": "nM"}
    ]},
    {"binder": "B1", "values": [
      {"measurement": "Kd", "setting": "PARP-1 [1]; blunt", "value": "30 ± 10", "unit": "nM"}
    ]},
    {"binder": "CCCGGGCGGGCGGGAGGGGAGG (structured_DNA)", "note": "[c-KIT L2]", "values": [
      {"measurement": "binding result", "setting": "PARP-1 [2]", "value": "binds"}
    ]},
    {"binder": "GGGCGGGCGGGAGGGGAGG (structured_DNA)", "note": "[c-KIT 5':L2]", "values": [
      {"measurement": "Kd", "setting": "PARP-1 [3]", "value": "~30", "unit": "nM"}
    ]}
  ]
}
